Experimental data reported in patent US20230338553A1 (TECHNISCHE UNIVERSIT T DRESDEN, published 2023).

T1: Prostate Stem Cell Antigen (PSCA) (human, UniProt O43653 12-83)
T1 construct: whole, on cells
T1 sequence (looked up): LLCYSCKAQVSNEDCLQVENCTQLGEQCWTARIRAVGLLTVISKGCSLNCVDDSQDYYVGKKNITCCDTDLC


Tests used:
[1] = molecular target: T2, Epidermal Growth Factor Receptor variant III (EGFRvIII) (UniProt P00533 25-1210); assay: flow cytometry on 293T^EGFRvIII cells, anti-myc and anti-biotin detection
T2 construct: whole, on cells
Method: The bound antibodies were detected either via their myc-epitope using anti-myc/FITC antibody or via their biotin residue using anti-biotin/PE antibody (1:10; Miltenyi Biotec, Bergisch Gladbach, Germany). Cells stained only with secondary antibody were included as a control. […] At least 10,000 stained cells were measured by flow cytometry (MACSQuant, Miltenyi Biotec, Bergisch Gladbach, Germany) and analyzed by FlowJo software version 7.6.5 (TreeStar Inc., Ashland, USA).
In this case the AM1-antibodies served as negative controls. Binding of scFvs and of scFv-P-BAPs was visualized with secondary anti-myc-PE (grey histograms in upper and middle graphs). […] Open histograms represent control staining only using secondary antibodies or an IgG-PE isotype control. […] Recombinant proteins were separated using SDS-PAGE, with parental single chain antibodies serving as controls. Blots were subsequently stripped and re-probed with biotin antibodies.

[2] = molecular target: T1, Prostate Stem Cell Antigen (PSCA); assay: flow cytometry titration on 293T^PSCA cells, anti-myc-PE detection (Example 7, FIG. 9)
Method: After detection with a secondary anti-myc-PE-antibody the MFIs were determined using a MACSQuant Cytometer (Miltenyi Biotech) and FlowJo software and the Kd values were calculated with the PRISM software program. FIG. 9 depicts the graphs for the KD value calculations.

Row | Binder | binding result [1] | fold better affinity (KD value) than the parental murine scFv(AM1) [2]
1 | scFv(MR1.1)-P-BAP (scFv, mono-biotinylated at the C-terminal P-BAP (PSTCD biotin acceptor domain), EGFRvIII-specific scFv fused to P-BAP) scFv: DAAQPARRARRTKLGTELGSHMQVKLQQSGGGLVKPGASLKLSCVTSGFTFRKFGMSWVRQTSDKRLEWVASISTGGYNTYYSDNVKGRFTISRENAKNTLYLQMSSLKSEDTALYYCTRGYSPYSYAMDYWGQGTTVTVSSSGGGSGGGGSGGGGSDIELTQSPASLSVATGEKATIRCMTSTDIDDDMNWYQQKPGEPPKFLISEGNTLRPGVPSRFSSSGTGTDFVFTIENTLSEDVGDYYCLQSWNVPLTFGDGTKLEITKLSSKLKVTVNGTAYDVDVDVDKSHENPMGTILFGGGTGGAPAPAAGGAGAGKAGEGEIPAPLAGTVSKILVKEGDTVKAGQTVLVLEAMKMETEINAPTDGKVEKVLVKERDAVQGGQGLIKIGDLELIEGSSGPEQKLISEEDLNSAVDHHHHHH | binds | 
2 | scFv(AM1)-P-BAP (scFv, mono-biotinylated at the C-terminal P-BAP (PSTCD biotin acceptor domain) when produced in 293T-huBirA cells, PSCA-specific murine scFv derived from 7F5, fused to P-BAP, with myc tag and His6; also called murine scFv(AM1)-BAP) scFv: DAAQPARRARRTKLGTELGSQVKLQESGGGLVQPGGSLKLSCVASGFTFSSYTMSWVRRTPEKRLEWVAYIHNGGGHTYYPDTIKGRFTISRDNAKNTLFLEMSSLKSEDTAMYYCTRRMYYGNSHWYFDVWGAGTSVTVSSAKTTPPSVYGGGGSGGGGSGGGGSTNSDIVMTQSPSSLSASLGDRVTINCRTSQDISNYLNWYQLTPDGTVKLLIYYTLKLNSGVPSRFSGSGSGTDYSLTINNLEKEDFATYFCQQSKTLPWTFGGGTKLEIKRADAAPTVSGPKLSSKLKVTVNGTAYDVDVDVDKSHENPMGTILFGGGTGGAPAPAAGGAGAGKAGEGEIPAPLAGTVSKILVKEGDTVKAGQTVLVLEAMKMETEINAPTDGKVEKVLVKERDAVQGGQGLIKIGDLELIEGSSGPEQKLISEEDLNSAVDHHHHHH | no binding (tested: 1 µg scFv on 2×10^5 cells) | 
3 | scFv(h-AM1)-BAP (scFv, mono-biotinylated at the C-terminal BAP (Bio-Tag), Fully humanized PSCA-specific scFv with N-terminal Ig kappa leader in the construct and C-terminal c-Myc tag, Bio-Tag and His6; also called humanized scFv(h-AM1)) scFv: DAAQPARRARRTKLGTELGSEVQLLESGGGLVQPGGSLRLSCVASGFTFSSYTMSWVRQAPGKGLEWVSYIHNGGGHTYYADSVKGRFTISRDNSKNTLYLQMNSLRAEDTAVYYCTRRMYYGNSHWYFDVWGAGTRVTITSAKTTPPSVYGGGGSGGGGSGGGGSTNSDIQMTQSPSSLSASVGDRVTITCRTSQSISNYLNWYQQKPGKAPKLLIYYTLKLNSGVPSRFSGSGSGTDFTLTISSLQPEDFATYYCQQSKTLPWTFGGGTKLEIKRADAAPTVSGPEQKLISEEDLNSAVDMSGLNDIFEAQKIEWHEGAPSSHHHHHH |  | 100 fold
